Patent KR20200059381A

How the values were obtained:
[1] = target: 구제역 바이러스 혈청형 O 배양액(cal1~cal4) (Foot-and-mouth disease virus serotype O); assay: sandwich ELISA, cal3, 1E58 coat 4 ug/ml, 1E58-HRP 0.8 ug/ml, 450 nm
[2] = target: 구제역 바이러스 혈청형 O 배양액(cal1~cal4) (Foot-and-mouth disease virus serotype O); assay: sandwich ELISA, cal4, 1E58 coat 4 ug/ml, 1E58-HRP 0.8 ug/ml, 450 nm

B1: 단클론항체 1E58 (antibody, V domains shown)
VH: EFQLQQSRPELAKPGASVKISCKTSGHTFTTYTMHWVKQSHVKSLEWIGCFNPNNGGATYNQKFKGKATLTMDKSSNTAYVEVRSLTSDDSAVYYCAYGNYVNFDYWGQGTTLTVSS
VL: DIVLTQSPASLAVSLGQRATISYRASKSVSTSGYSYMHWNQQKPGQPPRLLIYLVSNLESGVPARFSGSGSGTDFTLNIHPVEEEDAATYYCQHIRELTRSEGGPSWKN
[1]
  O.D: 2.65 O.D
[2]
  O.D: 1.46 O.D
